Assay results from paper PMC9256742, “Structure and function of cancer-related developmentally regulated GTP-binding protein 1 (DRG1) is conserved between sponges and humans” (Scientific Reports, 2022).

T1: recombinant human DRG family regulatory protein 1, His-tagged (human, UniProt Q8WU90 1-426)
T1 construct: human DFRP1 (LEREPO4/ZC3H15), cDNA from a commercially available product; also called HsaDFRP1; human DFRP1
T1 sequence (looked up): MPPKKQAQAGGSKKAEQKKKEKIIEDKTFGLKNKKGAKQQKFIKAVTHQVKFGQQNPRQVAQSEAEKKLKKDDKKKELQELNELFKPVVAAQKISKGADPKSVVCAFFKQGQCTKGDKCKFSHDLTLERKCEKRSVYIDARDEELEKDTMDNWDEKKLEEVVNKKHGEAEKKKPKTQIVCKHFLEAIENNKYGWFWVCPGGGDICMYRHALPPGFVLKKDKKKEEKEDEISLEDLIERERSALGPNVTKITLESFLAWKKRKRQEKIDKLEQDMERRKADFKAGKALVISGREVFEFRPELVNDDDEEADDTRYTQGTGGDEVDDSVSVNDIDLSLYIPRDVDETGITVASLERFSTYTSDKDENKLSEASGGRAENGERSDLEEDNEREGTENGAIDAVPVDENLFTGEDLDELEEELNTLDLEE


What was measured:
[1] = molecular target: recombinant sponge (Eunapius subterraneus) developmentally regulated GTP-binding protein 1, His-tagged (Eunapius subterraneus)
[2] = molecular target: recombinant sponge (Eunapius subterraneus) DRG family regulatory protein 1, His-tagged (Eunapius subterraneus); test: SEC; Superdex 200 Increase 10/300 GL, 10 mM phosphate buffer, 140 mM NaCl, pH 7.4, 4 °C; column calibrated with standards; fractions analysed by SDS-PAGE and anti-His Western blot
[3] = molecular target: T1, recombinant human DRG family regulatory …; test: cross-linking; glutaraldehyde cross-linking of a mixture of DRG1 and DFRP1 (2 ug of each), or of DFRP1 alone, in PBS, 0.125-0.5% glutaraldehyde, 30 min, room temperature (25 °C); SDS-PAGE, Coomassie; conditions: both partners purified

Sequence of recombinant sponge (Eunapius subterraneus) developmentally regulated GTP-binding protein 1, His-tagged (Eunapius subterraneus) (main, as listed by the source): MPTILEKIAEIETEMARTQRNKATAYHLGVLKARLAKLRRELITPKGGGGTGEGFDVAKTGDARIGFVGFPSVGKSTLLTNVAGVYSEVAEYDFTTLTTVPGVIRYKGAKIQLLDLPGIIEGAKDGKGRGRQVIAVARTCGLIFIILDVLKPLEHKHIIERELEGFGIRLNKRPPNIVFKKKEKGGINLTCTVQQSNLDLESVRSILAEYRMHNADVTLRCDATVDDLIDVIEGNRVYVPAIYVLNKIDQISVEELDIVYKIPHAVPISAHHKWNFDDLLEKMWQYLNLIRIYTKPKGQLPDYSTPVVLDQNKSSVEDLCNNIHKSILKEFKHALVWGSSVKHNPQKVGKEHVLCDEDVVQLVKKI

GTPase activity of EsuDRG1 (GTPase-Glo luminescence assay) with equimolar EsuDFRP1, 1.2 uM each, against EsuDRG1 alone [1] | stoichiometry N [2] | binding result [3] | Molecule
2.5 fold | 4 |  | recombinant sponge (Eunapius subterraneus) DRG family regulatory protein 1, His-tagged (natural protein)
 |  | binds | recombinant human developmentally regulated GTP-binding protein 1, His-tagged (natural protein, UniProt Q9Y295 1-367, looked up, human DRG1, cDNA from a commercially available product; also called HsaDRG1; HsaDRG1-His) MSSTLAKIAEIEAEMARTQKNKATAHHLGLLKARLAKLRRELITPKGGGGGGPGEGFDVAKTGDARIGFVGFPSVGKSTLLSNLAGVYSEVAAYEFTTLTTVPGVIRYKGAKIQLLDLPGIIEGAKDGKGRGRQVIAVARTCNLILIVLDVLKPLGHKKIIENELEGFGIRLNSKPPNIGFKKKDKGGINLTATCPQSELDAETVKSILAEYKIHNADVTLRSDATADDLIDVVEGNRVYIPCIYVLNKIDQISIEELDIIYKVPHCVPISAHHRWNFDDLLEKIWDYLKLVRIYTKPKGQLPDYTSPVVLPYSRTTVEDFCMKIHKNLIKEFKYALVWGLSVKHNPQKVGKDHTLEDEDVIQIVKK
